Source: PMC7616283 (Nature cardiovascular research, 2024)
Like-named read-outs stand apart in the source and are kept apart here.

B1: unlabeled human recombinant CCL1 (ligand, UniProt P22362 24-96, looked up)
chain: KSMQVPFSRCCFSFAEQEIPLRAILCYRNTSSICSNEGLIFKLKRGKEACALDTVGWVQRHRKMLRHCPSKRK
B2: biotinylated human recombinant CCL17 (ligand, UniProt Q92583 24-94, looked up)
chain: ARGTNVGRECCLEYFKGAIPLRKLKTWYQTSEDCSRDAIVFVTVQGRAICSDPNNKRVKNAVKYLQSLERS
modifications: biotin (biotinylated; site not stated)
B3: unlabeled human recombinant CCL17 (ligand, UniProt Q92583 24-94, looked up)
chain: B2 chain

Columns and labels:
[1] = biological target: T1, human CCR8 (HA-tagged) on stably transfected HEK293 cells (human, UniProt P51685 1-355); assay: flow cytometry on cells
[2] = biological target: T2, human CCR8 carried on proteoliposomes (human, UniProt P51685 1-355); assay: SPR
[3] = biological target: T2, human CCR8 carried on proteoliposomes; assay: SPR; remark: listed apart in the source
[4] = biological target: T3, human CCR4 carried on liposomes (human, UniProt P51679 1-360); assay: SPR
T3 sequence (looked up): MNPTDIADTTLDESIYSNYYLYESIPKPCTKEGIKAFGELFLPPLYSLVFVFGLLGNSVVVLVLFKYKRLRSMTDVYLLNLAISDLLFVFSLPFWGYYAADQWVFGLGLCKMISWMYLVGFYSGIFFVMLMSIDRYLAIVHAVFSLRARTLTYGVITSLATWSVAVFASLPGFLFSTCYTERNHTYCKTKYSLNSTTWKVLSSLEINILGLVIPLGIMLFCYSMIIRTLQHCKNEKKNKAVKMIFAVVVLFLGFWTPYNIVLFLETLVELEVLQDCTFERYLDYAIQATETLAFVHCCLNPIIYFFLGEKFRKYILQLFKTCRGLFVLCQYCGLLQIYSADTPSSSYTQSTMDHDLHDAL

[5] = biological target: T1, human CCR8 (HA-tagged) on stably …; assay: flow cytometry on cells; remark: listed apart in the source

Row | Binder | IC50 [1] [nM] | Kd [2] [nM] | Kd [3] [nM] | koff [3] [s⁻¹] | binding result [4] | IC50 [5] [nM]
1 | B1 | 0.58 |  |  |  |  | 
2 | B2 |  | 11.7 | 1.1 ± 0.4 | 0.00042 | binds | 
3 | B3 | 4.9 |  |  |  |  | 9.4
